# Measurements reported in publication PMC10511320, “R-loop-dependent promoter-proximal termination ensures genome stability”.
# B1: Blunt-end dsDNA (30 bp) random (dsDNA)
# DNA 1: GAGCTACCAGCTACCCCGTATGTCAGAGAG
# DNA 2: CTCTCTGACATACGGGGTAGCTGGTAGCTC
# How the values were obtained:
# SSB1 [1] = target: T1, SSB1 (human, UniProt Q9BQ15 1-211); assay: EMSA; EMSA: 100 nM Cy3 probe, 20 mM Tris-HCl pH 7.5, 50 mM NaCl, 5 mM MgCl2, 0.2 mM EDTA, 1 mM DTT, on ice 30 min; 6% native PAGE, 0.5x TBE, cold room; conditions: protein: recombinant; blunt
# T1 sequence (Q9BQ15 whole entry): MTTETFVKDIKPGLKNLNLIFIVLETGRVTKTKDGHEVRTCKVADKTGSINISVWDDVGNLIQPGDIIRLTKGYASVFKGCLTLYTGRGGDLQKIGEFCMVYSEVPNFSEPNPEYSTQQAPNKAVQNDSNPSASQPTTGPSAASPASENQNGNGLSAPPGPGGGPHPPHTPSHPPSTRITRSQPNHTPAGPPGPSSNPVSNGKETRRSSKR
# SSB1 [2] = target: T1, SSB1; assay: EMSA; ED Fig. 2a ssDNA taken as (dT)48, the only listed ssDNA oligo; EMSA: 100 nM Cy3 probe, 20 mM Tris-HCl pH 7.5, 50 mM NaCl, 5 mM MgCl2, 0.2 mM EDTA, 1 mM DTT, on ice 30 min; 6% native PAGE, 0.5x TBE, cold room; conditions: protein: recombinant; label: 3' Cy3
Binder,binding result (SSB1 [1]),binding result (SSB1 [2])
B1,no binding,
TTTTTTTTTTTTTTTTTTTTTTTTTTTTTTTTTTTTTTTTTTTTTTTT (ssDNA) [oligo (dT)48],,binds
